# Assay: yeast display, Sf9 membrane polyspecificity reagent, FACS + sequencing; frameworks hold sequencing errors
# How it was run: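 Nanobodies came from a synthetic yeast display library in Saccharomyces cerevisiae BJ5465, induced with galactose for 36–48 hours and stained for 1 hour at 4 °C with 10% biotinylated, detergent-solubilized Sf9 membrane reagent. Cells were enriched on streptavidin microbeads and then FACS-sorted, with low and high (top ~1%) gates set on anti-HA fluorescence for expression and streptavidin fluorescence for reagent binding. Each polyreactivity label reflects the gate a clone came from. Genes were amplified by colony PCR, sequenced by MiSeq 2 × 250 and filtered by CDR length.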
row,Sequence,polyreactivity (PSR sort gate)
1,QVQLVESGGGLVQAGGSLRLTCAASGRTFYFYTMGWYRQAPGKERELVATITWRGGRTYYADSVKGRFTITRDNAKNTVYLQMNSLKPEDTAVYYCNADYASYRHRMDYWGQGTQVTVSS,high polyreactivity
2,QVQLVESGGGLVQAGGSLRLTCAASGRTFYVYAMGWYRQAPGKERELVAAITRSGDSTYADSVKGRFTISRDNAKNTVYLQMNSLKPEDTAVYYCSKRYTHYSFRRFDYWGQGTQVTVSS,low polyreactivity
3,QVQLVESGGGLVQAGGSLRLTCAASGSIFAAKAMGWYRQAPGKERELVAAIRTRTGSTYYADSVKGRFTISRDNAKNTVYLEMNSLKPEDTAVYYCAADGGVPFWIHSTYYYWGQGTQVTVSS,low polyreactivity
4,QVQLVESGGGLVQAGGSLRLTCAASGSIFAKNAMGWYRQAPGKERELVAAIDLNGGSTYYADSVKGRFTISRDNAKNTDYLQMNSLKPEDTAVYYCAVYYGHSSVIRSSPEYDSWGQGTQVTVSS,low polyreactivity
5,QVQLVESGGGLVQAGGSLRLTCAASGSIFDKNVMGSYRQAPGKERELVAAISSSGGSTYYADSVKGRFTISRDIAKNTVYLQMNSLKPVDSAVYYCAKVPGRDRADRYWDHYSHDYWGQGTQVTVSS,high polyreactivity
6,QVQLVESGGGLVQAGGSLRLTCAASGSIFDSNAMGWYRQAPGKERELVADIRGIGGSTFYADSVKWRFTISRDNAKNTVYLQMNSLKPEDTAVYYCAAVGKSPSRFGYWGQGTQVTVSS,low polyreactivity
7,QVQLVESGGGLVQAGGSLRLTCAASGSIFGGYGMGWYRQAPGKERELVAAITSGTSTYYADSVKGRFTISRDNAKNTVYLQMNSLKPEDTAVYYCAARPYPHSAYEGDYWGRGTQVTVSS,low polyreactivity
8,QVQLVESGGGLVQAGGSLRLTCAASGSIFGGYTMGWYRQAPGKERELVAAISRRGGNTYYADSVKGRFTISRDNAKYTVYLQMNSLKPEDTAVYYCNARPTTYNYDYWGQGTQVTVSS,high polyreactivity
9,QVQLVESGGGLVQAGGSLRLTCAASGSIFGLYAMGWYRHAPGKERELVAAISRTGGSTYYADSVKGRFTISRDNAKNTVYLQMNSLKPEDTAVYSCNAVYFRYRYNYWGQGTQVTVSS,high polyreactivity
10,QVQLVESGGGLVQAGGSLRLTCAASGSIFGVYTMGWYRQAPGKERELVAAITSAGSTYADSVKGRFTISRDNAKNTVYLQMNSLNPEDTEVYYCNAQSFLLSLRVELREPHEYWGQGTQVTVSS,low polyreactivity
11,QVQLVESGGGLVQAGGSLRLTCAASGSIFNGNAMGWYRQAPGKERELVAAISNVGRTDYADSVKGRFTISRDNAKNTVYLQMNSLKPEDTAVYYCAAGVYSGYNRYFAPRSWFGYYYWGQGTQVTVSS,low polyreactivity
12,QVQLVESGGGLVQAGGSLRLTCAASGSIFPKNAIGWYRQAPGKERQLVAGITSRTGRTYYADSVKGRFTISRDNAENTVYLQMNSLKPEDTAVYYCAARNPSGKGRYDYWGQGSQVTVSS,high polyreactivity
13,QVQLVESGGGLVQAGGSLRLTCAASGSIFRSYAMGWYRQAPGNERELVAAISWRGGRTYYADSVKGRFTISRDNAKNTVYLQRNSLKPADTAVYYCAARKRAQQGTRDHDYWGQGTQVTVSS,high polyreactivity
14,QVQLVESGGGLVQAGGSLRLTCAASGSIFSYNAKGRYRQAPGKERELVAGITTGDSTNYADSVKGRFTISRDNAKNTVYLQMNCLKPEDTAVYYCAATRLVSYHYPDLDSQQGGYWGQGTQVTVSS,low polyreactivity
15,QVQLVESGGGLVQAGGSLRLTCAASGSIFTKYAMGWYRQAPGKERELVAGISSSGCSTYYADSVKGRFTISRDYAKNTVYLQMNSLKPEDTAVYYCAARGYYKYDYWGQGTQVTVSS,high polyreactivity
16,QVQLVESGGGLVQAGGSLRLTCAASGSIFVGYAMGWYREAPGKEMELVAAITTRGDTTYYADSVKGRFTISRDNAKNTVYLQMNSLKPEHTAVYYCNTTSFFQAWPSDVQYDYWGQGTQVTVSS,low polyreactivity
17,QVQLVESGGGLVQAGGSLRLTCAASGSIFYAYAMGWYRQAPGKERELVAGITFSDDSTYYADSVKGRFTISRDNAKNTVYLQMNSLKPEDTAVYYCAADTISWYGNYYYWGQGTQVTVSS,high polyreactivity
18,QVQLVESGGGLVQAGGSLRLTCAASGSIFYTNAMGWYRQAPGKERELVAAIRWSGGRTYYADSVKGRFTISRDNAKNTVYLQMNSLKPEDTAVYYCTVVVRYPSAYAYWGQGTQVTLSS,high polyreactivity
19,QVQLVESGGGLVQAGGSLRLTCAASGSIIVTYAMGWYRQAPGKERELVAVINSGTSTNYADSVKGRFTISRDNAKNTVYLQMNSLKPEDTAVYYCNADPLVYYYQDYRFCMGYWGQGTQVTVSS,low polyreactivity
20,QVQLVESGGGLVQAGGSLRLTCAASGSILDSNAMGWYRQAPGKERELVSAITSGGSTYYADSVKGRFTISRDNAKNTVYLQMNSLKPEDTAVYYCAAAYLGYGAVQPSYEGGYWGQGTQVTVSS,low polyreactivity
21,QVQLVESGGGLVQAGGSLRLTCAASGSILYYAMGWYRQAPGKERELVAAITRSGTTTYYAASVKGRFTISRDNAKKTVYLQMNSLKPEDTAVYFWAARTSYDYDYWGQGTQVTVSS,high polyreactivity

row,Sequence,polyreactivity (PSR sort gate)
1,QVQLVESGGGLVQAGGSLRLTCAASGSITSINAMGWYRQAPGKERELVAAINWSSGSTYYADSVKGRFTISRDYAKNTVYLQKISLKPEDTAVYYCAVDRYFFAGYYGYEYWGQGTQGTVSS,high polyreactivity
2,QVQLVESGGGLVQAGGSLRLTCAASGSIVDANAMGLYRQAPGKERELVAAISSGDSTSYADSVKGRFTISRDNAKNTVYLQLNSLNPEDTAVYYCNAYVDSQGGFTLKHDYWGQGTQVTVSS,low polyreactivity
3,QVQLVESGGGLVQAGGSLRLTCAASGSTFDINAMGWYRQAPGKERELVASITFSGGSTYYADSVKGRFTISRDNAKNTVYLQMNSLKPEDTAVYYCAADSSGEYPRWLRYDYWGQGTQVTVSS,low polyreactivity
4,QVQLVESGGGLVQAGGSLRLTCAASGSTFIRYTMVWYRQAPGKEREFVATITWSTGTTYYADSVKGRFTISRDNAKYSVYLQMNSLKPEDTAVYYCAAVYYYYTGITYDYWGQGTQVTVSS,high polyreactivity
5,QVQLVESGGGLVQAGGSLRLTCAASGSTFLGYAMGWYRQAPGKERELVAAINLSTSGTYYADSVKGRFTISRDNAKNTVYLQMNSLKPEDTAVYYCAAAYSNINYYYQYYYWGQGTQVTVSS,low polyreactivity
6,QVQLVESGGGLVQAGGSLRLTCAASGSTFNAYTMGWYRQAPGKERELVAAISSGAGTYYADSVKGRFTISRDNAKYIVYLPMNSLKPEDTAVYYCAADPVGYYDPSVYWGQGTLVTVSS,low polyreactivity
7,QVQLVESGGGLVQAGGSLRLTCAASGSTFRHNAMGWYRQAPGKETELVAVITDGASTNYADSVKGRFTMSRDNAKNTVYLQLNSLKPEDTAVYYCAAYHRGYYTGREYYYWGQGTQVTVSS,low polyreactivity
8,QVQLVESGGGLVQAGGSLRLTCAASGSTFRVNVMGWYRQAPGTERELVAAITTSGGSTYYADSVKGRFTISRDNAKNTVYLQMNSLKPEDTAVYYCKTTYPSGWGPDMDYWGQGTQVTVSS,low polyreactivity
9,QVQLVESGGGLVQAGGSLRLTCAASGSTFSDYAMGWNRQAHGKERELVAGITGGGGTYYADSVKGRFTISRDNAKNTVYLQMNSLKPEDTALYYCAAGRRHGLGYWGQGTLVTVSS,low polyreactivity
10,QVQLVESGGGLVQAGGSLRLTCAASGSTFYYYTMGWYRQAPWKERELVAAITSAGSTHYADSVKGRFTISRDNAKNNVYLQMNSLKPEDTAVYYCAAKSHWWWRGYYYWGQGTQVTVSS,high polyreactivity
11,QVQLVESGGGLVQAGGSLRLTCAASGSTLIDNVMGWYRQAPGKERELVASITSSDGTTYADSVKGRFTISRDNAKNSVYLQMNSLKPEDTAVYYFAARPWYGTYNYWGEGTQVTVSS,low polyreactivity
12,QVQLVESGGGLVQAGGSLRLTCAASGTIFKRYAMRLYRQAPGKERELVATISSRGSCTNYADSLKGRFTISRDIAKNTVYLQMNSLKPQDTAVYYCASEVYRGDFWGQGTQVTVSS,high polyreactivity
13,QVQLVESGGGLVQAGGSLRLTCAASRRTFEHYAMGWYRQAPVKEREYVAAINSSDGGTYYADSVKGRFTISRDNAKNTVYLQMIRLKPDDSAVYYCAAAEFGSVPGYEMDYWGQGTQVTVSS,low polyreactivity
14,QVQLVESGGGLVQAGGSLRLTCAATGIIFSYYAKGWYRQAPGKERELVAAISWGGGSTFYADSVKGRFTISRDNAKKTVSLQMKSLKPEDNAVLFCDADYGGDFGMDYCGQGTQVTVSS,low polyreactivity
15,QVQLVESGGGLVQAGGSLRLTCAATGSTFHLYGMGWYRKAPGKESELVAAITKRGTSTYYADSVKGRFTISRDNAKNTVYLQINSLKPEDTAVYYCADEYTKEQRGFDYWGQGTQVTLSS,high polyreactivity
16,QVQLVESGGGLVQAGGSLRLTCADSGSILYINAMGRYIQAPGKEREWVAAITYSGGSTYYADSVKGRFTISRDNAKNTVYLQMNSLKPEDTAVYYCAADAVVAGRYDGHDYWGQGTQVTVSS,low polyreactivity
17,QVQLVESGGGLVQAGGSLRLTCDASGRTFYWNAMGWYRQAPGKERELVAAISNCGTTTYYADSVKGRFTISRDNAKNTVYLQLNSLKPEDTAVYYCAADIWYFDYEYWGQGTQVTLSS,high polyreactivity
18,QVQLVESGGGLVQAGGSLRLTCDASGSTFYHNAMGWYRQAPGKERELVAAITTSGGSTYYADSVKWRFTISRDNAKNTVYLQMNSLKPEDSAVYYCNVYRPYLAPYDYWGQGTQVTVSS,low polyreactivity
19,QVQLVESGGGLVQAGGSLRLTSAASGRIIDQNAMGWYRQAPGKERELVAAITSGGSTNYADSVKGRFTISRDNAKNTVYLQMNSLKPEDTAVYYCNSRDASRRYDYDFLERDSWGQGTQVTVSS,low polyreactivity
20,QVQLVESGGGLVQAGGSLRLTSAASGRTFFRYAMRWYRQAPGKERELVAAISRGGGRTYYADSVKGRFTISRDNAKNTVYLQMNSLKPEDTAVYYCNKTERSGSNYLGQGTQVTVSS,high polyreactivity
